Measurements reported in patent US20150266925A1 (COMPLIX, published 2015).

T1: human IL-23 (human, UniProt Q9NPF7 20-189; P29460 23-328)
T1 sequence (looked up) 1: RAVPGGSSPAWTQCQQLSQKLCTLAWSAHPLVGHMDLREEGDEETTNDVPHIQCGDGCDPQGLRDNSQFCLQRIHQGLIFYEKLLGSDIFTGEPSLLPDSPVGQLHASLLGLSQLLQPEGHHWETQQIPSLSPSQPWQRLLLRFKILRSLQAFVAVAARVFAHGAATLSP
T1 sequence (looked up) 2: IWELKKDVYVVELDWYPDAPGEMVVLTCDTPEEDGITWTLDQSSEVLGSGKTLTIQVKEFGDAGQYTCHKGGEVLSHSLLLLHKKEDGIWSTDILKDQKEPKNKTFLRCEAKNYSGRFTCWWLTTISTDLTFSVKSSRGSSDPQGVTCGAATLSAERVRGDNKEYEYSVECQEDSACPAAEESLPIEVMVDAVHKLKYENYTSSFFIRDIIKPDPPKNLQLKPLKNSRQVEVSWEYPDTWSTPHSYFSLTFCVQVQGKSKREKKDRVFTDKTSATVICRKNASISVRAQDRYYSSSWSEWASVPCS


How the values were obtained:
[1] = target: T1, human IL-23; assay: cell-based or functional assay
[2] = target: T1, human IL-23; assay: kinetic ELISA, soluble polypeptide
[3] = target: T1, human IL-23; assay: kinetic ELISA, soluble polypeptide; kinetic ELISA
[4] = target: T1, human IL-23; assay: equilibrium ELISA, soluble polypeptide; equilibrium ELISA
[5] = target: T1, human IL-23; assay: phage-coated ELISA, clone displayed on phage
[6] = target: T1, human IL-23; assay: equilibrium ELISA, soluble polypeptide
[7] = target: T1, human IL-23; assay: ELISA
[8] = target: T1, human IL-23; assay: standard equilibrium ELISA
[9] = target: T1, human IL-23; assay: cell-based or functional assay; remark: listed apart in the source

functional KD (Spleno fKD), mouse splenocyte assay: IL-17 production induced by human IL-23; n data = 3 [1] [pM]	koff [2] [s⁻¹]	kon [2] [M⁻¹ s⁻¹]	Kd [3] [pM]	Kd [4] [pM]	Kd [5] [pM]	functional KD (Spleno fKD), mouse splenocyte assay: IL-17 production induced by human IL-23; n data = 1 [1] [pM]	Kd [2] [pM]	Kd [6] [pM]	Kd [7] [pM]	functional KD (DB fKD), DB cell assay: Stat3 phosphorylation induced by human IL-23; n data = 2 [1] [pM]	functional KD (Spleno fKD), mouse splenocyte assay: IL-17 production induced by human IL-23; n data = 5 [1] [pM]	factor better than the non-matured variant C159 [8] [fold]	IC50 (read off the curve), inhibition of Stat3 phosphorylation in DB cells by MB23-PEG pre-incubated with 35 pM hIL23 [9] [nM]	Binder
68800	0.0007	100000	7000	3800	3000	–	–	–	–	–	–	–	–	Cl59 (designed binder, Non-matured Alphabody from the AC11 library, tested as soluble recombinant protein; also called Clone 59; C159) MSIEEIQKQIASIQEVIAGIQKWIYMMTGGSGGSGGMSIEEIQKQIAAIQKQIAAIQKQIYAMTGGSGGGGSGMSIEEIQKQITAIKEQIIAIYKQIMAMTP
–	0.00043	110000	–	–	–	1900	3900	930	–	–	–	–	–	59m_C2eQ (designed binder, also called design variant; polypeptide 19) single chain Alphabody: MSIQQIQKEIAQIQEVIAGIQKWIYMMTGGSGGSGGGGSGGSGGMSIEEIQKQIAAIQCQIAAIQKQIYAMTGSGGGGSGGSGGGGSGMSIEEIQKQITAIQEQIIAIYKQIMAMTP
–	–	–	–	–	–	–	–	–	300	1730	21700	–	–	Cl59m (designed binder, Rationally designed (in silico matured) variant of Cl59; also called C159m) MSIQQIQKEIAQIQEVIAGIQKWIYMMTGGSGGGSGGGSGGGSGMSIEEIQKQIAAIQKQIAAIQKQIYAMTGGSGGGSGGGSGGGSGMSIEEIQKQITAIKEQIIAIYKQIMAMTP
–	0.00026	350000	–	–	–	700	750	390	–	–	–	–	–	59m_A3cA_A4cS_C2eQ (designed binder, also called design variant; polypeptide 20) single chain Alphabody: MSIQQIQKEIAQIQEVIAAIQKWIYSMTGGSGGSGGGGSGGSGGMSIEEIQKQIAAIQCQIAAIQKQIYAMTGSGGGGSGGSGGGGSGMSIEEIQKQITAIQEQIIAIYKQIMAMTP
–	0.00025	1.9e+06	–	–	200	–	130	270	–	700	–	–	–	MB9 (designed binder) MSIQQIQKEITNIQEVIAAIQKWIYTMTGGSGGSGGMSIEEIQKQIAAIQCQIAAIQKQIYAMTGSGGGGSGGSGGGGSGMSIEEIQKQIAAIQNQILAIYKQIMAMGS
1150	0.00016	4.5e+06	–	–	200	–	30	100	–	450	–	38	–	MA5 (designed binder) MSIKQIQKEIAQIQEVIAAIQKWIYRMTGGSGGSGGMSIEEIQKQIAAIQCQIAAIQKQIYAMTGSGGGGSGGSGGGGSGMSIEEIQKQIAAIQDQIVAIYKQIMAMSS
–	0.00022	1.6e+06	–	–	210	–	140	250	–	–	–	–	–	MB67 (designed binder) MSIQKIQKEITNIQEVIAAIQKYIYTMTGGSGGSGGMSIEEIQKQIAAIQCQIAAIQKQIYAMTGSGGGGSGGSGGGGSGMSIEEIQKQIAAIQRQILAIYKQIMAMST
–	0.00014	1.3e+06	–	–	180	–	110	200	–	–	–	–	–	MB43 (designed binder) MSIEEIQKEIKNIQEVIAAIQKYIYTMTGGSGGSGGMSIEEIQKQIAAIQCQIAAIQKQIYAMTGSGGGGSGGSGGGGSGMSIEEIPKQIAAIQDQIIAIYKQIMAMTR
–	0.00021	1.5e+06	–	–	70	–	150	170	–	160	–	–	–	MB23 (designed binder, 3 for clone 59 (conflict); also called non-PEGylated MB23 Alphabody) MSIEQIQKEITTIQEVIAAIQKYIYTMTGGSGGSGGMSIEEIQKQIAAIQCQIAAIQKQIYAMTGSGGGGSGMSIEEIQKQIAAIQEQIVAIYKQIMAMAS
–	–	–	–	–	–	–	–	–	–	–	–	–	~1	MB23-PEG (designed binder, 40 kDa activated maleimide PEG conjugated to the single free thiol group (Cys) of MB23) MSIEQIQKEITTIQEVIAAIQKYIYTMTGGSGGSGGMSIEEIQKQIAAIQCQIAAIQKQIYAMTGSGGGGSGMSIEEIQKQIAAIQEQIVAIYKQIMAMAS
–	0.0005	200000	–	–	1500	11000	2500	1800	–	–	–	–	–	MA14 (designed binder) MSIEQIQTEIASIQEVIAGIQKYIYSMTGGSGGSGGMSIEEIQKQIAAIQCQIAAIQKQIYAMTGSGGGGSGMSIEEIQKQIAAIQNQIVAIYKQIMAMGG
–	0.00032	450000	–	–	700	10000	700	290	–	–	–	–	–	MA23 (designed binder) MSIQQIQKEIANIQEVIAAIQKWIYLMTGGSGGSGGMSIEEIQKQIAAIQCQIAAIQKQIYAMTGSGGGGSGMSIEEIQKQIAAIQEQIVAIYKQIMAMPS
–	0.00056	250000	–	–	160	1700	2300	1830	–	–	–	–	–	MB76 (designed binder) MSIQQIQKEITQIQEVIAAIQKYIYRMTGGSGGSDGMSIEEIQKQIAAIQCQIAAIQKQIYAMTGSGGGGSGMSIEEIQKQIAAIQGQILAIYKQIMAMSL
1010	0.00022	1e+06	–	–	180	–	210	200	–	–	–	–	–	MB38 (designed binder) MSIQEIQKEIKQIQEVIAGIQKYIYGMTGGSGGSGGMSIEEIQKQIAAIQCQIAAIQKQIYAMTGSGGGGSGMSIEEIQKQIAAIQNQILAIYKQIMAMPQ
–	0.00033	1.1e+06	–	–	90	–	300	210	–	460	180	–	–	MB64 (designed binder) MSIQQIQKEITQIQAVIAGIQKYIYRMTGGSGGSGGGGSGGSGGMSIEEIQKQIAAIQCQIAAIQKQIYAMTGSGGGGSGMSIEEIQKQIAAIQGQIVAIYKQIMAMAT
480	7.2e-05	800000	–	–	120	–	90	310	–	290	–	–	–	MA15 (designed binder) MSIQEIQKEIANIQAVIAGIQKYIYTMTGGSGGSGGGGSGGSGGMSIEEIQKQIAAIQCQIAAIQKQIYAMTGSGGGGSGMSIEEIQKQITAIQAQIIAIYKQIMAMPR
–	0.00032	2.5e+06	–	–	–	4100	130	230	–	–	–	–	–	MAcons (designed binder, also called polypeptide 15) single chain Alphabody: MSIQQIQKEIAQIQEVIAAIQKWIYSMTGGSGGSGGGGSGGSGGMSIEEIQKQIAAIQCQIAAIQKQIYAMTGSGGGGSGMSIEEIQKQIAAIQDQIVAIYKQIMAMSG
460	0.00035	1.4e+06	–	–	200	–	250	170	–	240	–	–	–	MA9 (designed binder) MSIQQIQKEITTIQAVIAAIQKWIYTMTGGSGGSGGGGSGGSGGMSIEEIQKQIAAIQCQIAAIQKQIYAMTGSGGGGSGMSIEEIQKQIAAIQGQIIAIYKQIMAMKD
–	0.00016	650000	–	–	470	900	250	350	–	–	–	–	–	MB74 (designed binder) MSIQQIQKEIATIQEVIAGIQKYIYRMTGGSGGSGGGGSGGSGGMSIEEIQKQIAAIQCQIAAIQKQIYAMTGSGGGGSGMSIEEIQKQIAAIQGQILAIYKQIMAMAI
